Results from publication PMC3261180.

Legend:
Asp12 = Asp12 (UniProt position 13, LKKAQDTGKIV); test: NMR
Asp2 = Asp2 (UniProt position 3, ---MVDFAFEL); test: NMR
Glu90 = Glu90 (UniProt position 91, VVDPGESRILA); test: NMR
Asp48 = Asp48 (UniProt position 49, PDIKEDIEYYA); test: NMR
Glu50 = Glu50 (UniProt position 51, IKEDIEYYAKL); test: NMR
Asp87 = Asp87 (UniProt position 88, ALAVVDPGESR); test: NMR
Glu100 = Glu100 (UniProt position 101, ALGGKE-----); test: NMR
Glu62 = Glu62 (UniProt position 63, GIPVYEFEGTS); test: NMR
Glu69 = Glu69 (UniProt position 70, EGTSVELGTLL); test: NMR
Glu6 = Glu6 (UniProt position 7, VDFAFELKKAQ); test: NMR
Glu64 = Glu64 (UniProt position 65, PVYEFEGTSVE); test: NMR
Glu47 = Glu47 (UniProt position 48, KPDIKEDIEYY); test: NMR
Asp44 = Asp44 (UniProt position 45, RNAKPDIKEDI); test: NMR
[1] = molecular target: Asp3 (position 3, ---GGDGG---); test: potentiometry
[2] = molecular target: Glu3 (position 3, ---GGEGG---); test: potentiometry
[3] = 298 K, 5.4 M guanidine-HCl, not stated for the denatured samples, unfolded (guanidine-denatured)
[4] = 298 K, low ionic strength, 10 mM sodium citrate/phosphate, no added salt stated, folded (native)
[5] = 333 K, 5.4 M guanidine-HCl, not stated for the denatured samples, unfolded (guanidine-denatured)
[6] = 333 K, low ionic strength, 10 mM sodium citrate/phosphate, no added salt stated, folded (native)
[7] = 298 K, 5.4 M guanidine hydrochloride, free peptide in 5.4 M GdnHCl
[8] = 298 K, no added salt (peptide in nano-pure water), free peptide, no denaturant
[9] = 333 K, 5.4 M guanidine hydrochloride, free peptide in 5.4 M GdnHCl
[10] = 333 K, no added salt (peptide in nano-pure water), free peptide, no denaturant

For “50S ribosomal protein L30e, 5R->K variant (L30e*) (Thermococcus celer; R8K;R21K;R42K;R54K;R76K)”, the pKa (Asp12; [3]) was 3.56±0.02, the pKa (Asp12; [4]) was 3.69±0.02 and the pKa (Asp12; [5]) was 3.46±0.02. The pKa (Asp12; [6]) was 3.69±0.03, the pKa (Asp2; [3]) was 3.62±0.01 and the pKa (Asp2; [4]) was 3.13±0.04. The pKa (Asp2; [5]) was 3.53±0.02, the pKa (Asp2; [6]) was 3.09±0.05 and the pKa (Glu90; [3]) was 4.16±0.02. For the same molecule, the pKa (Glu90; [4]) was 4.17±0.02, the pKa (Glu90; [5]) was 4.02±0.03 and the pKa (Glu90; [6]) was 4.24±0.02. It also gave a pKa (Asp48; [3]) of 3.56±0.02, a pKa (Asp48; [4]) of 4.14±0.04 and a pKa (Asp48; [5]) of 3.46±0.02. For the same molecule, the pKa (Asp48; [6]) was 4.24±0.04, the pKa (Glu50; [3]) was 4.16±0.02 and the pKa (Glu50; [4]) was 5.10±0.07. It also gave a pKa (Glu50; [5]) of 4.02±0.03, a pKa (Glu50; [6]) of 5.00±0.06 and a pKa (Asp87; [3]) of 3.54±0.02. For the same molecule, the pKa (Asp87; [4]) was 2.50±0.02, the pKa (Asp87; [5]) was 3.47±0.02 and the pKa (Asp87; [6]) was 2.49±0.03. It also gave a pKa (Glu100; [3]) of 4.19±0.02, a pKa (Glu100; [4]) of 4.31±0.03 and a pKa (Glu100; [5]) of 4.06±0.02. The pKa (Glu100; [6]) was 4.38±0.05, the pKa (Glu62; [3]) was 4.19±0.02 and the pKa (Glu62; [4]) was 3.20±0.06. For the same molecule, the pKa (Glu62; [5]) was 4.03±0.02, the pKa (Glu62; [6]) was 3.30±0.06 and the pKa (Glu69; [3]) was 4.19±0.02. It also gave a pKa (Glu69; [4]) of 3.79±0.03, a pKa (Glu69; [5]) of 4.01±0.03 and a pKa (Glu69; [6]) of 3.82±0.03. For the same molecule, the pKa (Glu6; [3]) was 4.17±0.02, the pKa (Glu6; [4]) was 2.34±0.03 and the pKa (Glu6; [5]) was 4.00±0.02. It also gave a pKa (Glu6; [6]) of 2.38±0.04, a pKa (Glu64; [3]) of 4.17±0.02 and a pKa (Glu64; [4]) of 4.10±0.06. The pKa (Glu64; [5]) was 4.00±0.02, the pKa (Glu64; [6]) was 4.06±0.07 and the pKa (Glu47; [3]) was 4.17±0.02. It also gave a pKa (Glu47; [4]) of 4.53±0.04, a pKa (Glu47; [5]) of 4.00±0.02 and a pKa (Glu47; [6]) of 4.56±0.04. It also gave a pKa (Asp44; [3]) of 3.62±0.01, a pKa (Asp44; [4]) of 3.08±0.04 and a pKa (Asp44; [5]) of 3.52±0.02. The pKa (Asp44; [6]) was 2.88±0.04.

GGDGG [Model pentapeptide Ac-GGDGG-NH2 (synthetic)] gave a pKa [1, 7] of 3.70±0.01, a pKa [1, 8] of 3.69±0.03 and a pKa [1, 9] of 3.64±0.02. The pKa [1, 10] was 3.61±0.02.

Molecule GGEGG [Model pentapeptide Ac-GGEGG-NH2 (synthetic)] has a pKa [2, 7] of 4.18±0.04, a pKa [2, 8] of 4.17±0.03 and a pKa [2, 9] of 4.10±0.02. For the same molecule, the pKa [2, 10] was 4.10±0.01.
